Data: paper PMC10397247

How the values were obtained:
Assay in all cases: two-hybrid library CCmax;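 note: natural log of median RNA to DNA barcode read ratio; higher means stronger binding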
4H1478-AA = target: T1, 4H1478-AA
T1 chain: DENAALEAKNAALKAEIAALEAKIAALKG

4H1579-AA = target: T2, 4H1579-AA; settings: mean of both orientations
T2 chain: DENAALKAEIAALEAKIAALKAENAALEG

4H1597-AA = target: T3, 4H1597-AA; settings: mean of both orientations
T3 chain: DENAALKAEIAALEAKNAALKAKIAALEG

4H1626-AA = target: T4, 4H1626-AA; settings: mean of both orientations
T4 chain: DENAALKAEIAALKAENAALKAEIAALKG

4H171-AA = target: T5, 4H171-AA; settings: mean of both orientations
T5 chain: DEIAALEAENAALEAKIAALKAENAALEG

4H174-AA = target: T6, 4H174-AA; settings: mean of both orientations
T6 chain: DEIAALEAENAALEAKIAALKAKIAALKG

4H1842-AA = target: T7, 4H1842-AA; settings: mean of both orientations
T7 chain: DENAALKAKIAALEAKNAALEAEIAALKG

4H1864-AA = target: T8, 4H1864-AA; settings: mean of both orientations
T8 chain: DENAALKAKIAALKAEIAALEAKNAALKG

4H1877-AA = target: T9, 4H1877-AA; settings: mean of both orientations
T9 chain: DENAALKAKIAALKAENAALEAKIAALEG

4H2109-AA = target: T10, 4H2109-AA; settings: mean of both orientations
T10 chain: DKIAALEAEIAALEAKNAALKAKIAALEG

4H2162-AA = target: T11, 4H2162-AA; settings: mean of both orientations
T11 chain: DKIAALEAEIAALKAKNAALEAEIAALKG

4H2253-AA = target: T12, 4H2253-AA; settings: mean of both orientations
T12 chain: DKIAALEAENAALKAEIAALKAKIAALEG

4H2274-AA = target: T13, 4H2274-AA; settings: mean of both orientations
T13 chain: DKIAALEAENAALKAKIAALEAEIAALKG

4H2330-AA = target: T14, 4H2330-AA; settings: mean of both orientations
T14 chain: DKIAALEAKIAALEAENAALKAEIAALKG

4H2389-AA = target: T15, 4H2389-AA; settings: mean of both orientations
T15 chain: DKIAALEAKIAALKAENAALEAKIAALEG

4H2438-AA = target: T16, 4H2438-AA; settings: mean of both orientations
T16 chain: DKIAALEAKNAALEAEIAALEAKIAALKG

4H2473-AA = target: T17, 4H2473-AA; settings: mean of both orientations
T17 chain: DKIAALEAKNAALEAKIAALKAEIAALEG

4H2649-AA = target: T18, 4H2649-AA; settings: mean of both orientations
T18 chain: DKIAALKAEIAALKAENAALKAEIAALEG

4H2698-AA = target: T19, 4H2698-AA; settings: mean of both orientations
T19 chain: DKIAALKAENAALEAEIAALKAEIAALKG

4H2725-AA = target: T20, 4H2725-AA; settings: mean of both orientations
T20 chain: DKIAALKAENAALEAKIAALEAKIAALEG

4H2865-AA = target: T21, 4H2865-AA; settings: mean of both orientations
T21 chain: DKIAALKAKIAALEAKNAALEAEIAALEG

4H3009-AA = target: T22, 4H3009-AA; settings: mean of both orientations
T22 chain: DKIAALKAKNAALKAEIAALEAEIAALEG

4H3016-AA = target: T23, 4H3016-AA; settings: mean of both orientations
T23 chain: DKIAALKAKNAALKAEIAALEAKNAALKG

4H310-AA = target: T24, 4H310-AA; settings: mean of both orientations
T24 chain: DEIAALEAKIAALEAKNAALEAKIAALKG

4H3120-AA = target: T25, 4H3120-AA; settings: mean of both orientations
T25 chain: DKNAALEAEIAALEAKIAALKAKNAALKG

4H3130-AA = target: T26, 4H3130-AA; settings: mean of both orientations
T26 chain: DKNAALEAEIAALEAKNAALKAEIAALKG

4H3165-AA = target: T27, 4H3165-AA; settings: mean of both orientations
T27 chain: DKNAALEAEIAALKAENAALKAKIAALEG

4H3381-AA = target: T28, 4H3381-AA; settings: mean of both orientations
T28 chain: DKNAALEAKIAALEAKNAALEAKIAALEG

4H3395-AA = target: T29, 4H3395-AA; settings: mean of both orientations
T29 chain: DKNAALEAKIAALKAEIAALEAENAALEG

4H3410-AA = target: T30, 4H3410-AA; settings: mean of both orientations
T30 chain: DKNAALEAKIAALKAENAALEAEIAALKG

4H3590-AA = target: T31, 4H3590-AA; settings: mean of both orientations
T31 chain: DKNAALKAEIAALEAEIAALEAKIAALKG

4H3697-AA = target: T32, 4H3697-AA; settings: mean of both orientations
T32 chain: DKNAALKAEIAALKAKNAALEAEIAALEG

4H3753-AA = target: T33, 4H3753-AA; settings: mean of both orientations
T33 chain: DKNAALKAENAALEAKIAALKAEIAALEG

4H3865-AA = target: T34, 4H3865-AA; settings: mean of both orientations
T34 chain: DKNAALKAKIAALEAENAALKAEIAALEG

4H458-AA = target: T35, 4H458-AA; settings: mean of both orientations
T35 chain: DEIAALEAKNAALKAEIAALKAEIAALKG

4H485-AA = target: T36, 4H485-AA; settings: mean of both orientations
T36 chain: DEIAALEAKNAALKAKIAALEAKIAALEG

4H536-AA = target: T37, 4H536-AA; settings: mean of both orientations
T37 chain: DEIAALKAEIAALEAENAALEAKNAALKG

4H570-AA = target: T38, 4H570-AA; settings: mean of both orientations
T38 chain: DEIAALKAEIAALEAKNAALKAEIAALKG

4H629-AA = target: T39, 4H629-AA; settings: mean of both orientations
T39 chain: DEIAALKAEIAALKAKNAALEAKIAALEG

4H710-AA = target: T40, 4H710-AA
T40 chain: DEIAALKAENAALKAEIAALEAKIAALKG

4H745-AA = target: T41, 4H745-AA; settings: mean of both orientations
T41 chain: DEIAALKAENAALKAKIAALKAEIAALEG

4H797-AA = target: T42, 4H797-AA; settings: mean of both orientations
T42 chain: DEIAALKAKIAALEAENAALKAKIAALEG

4H850-AA = target: T43, 4H850-AA; settings: mean of both orientations
T43 chain: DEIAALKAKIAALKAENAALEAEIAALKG

4H891-AA = target: T44, 4H891-AA; settings: mean of both orientations
T44 chain: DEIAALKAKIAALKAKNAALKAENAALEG

4H909-AA = target: T45, 4H909-AA; settings: mean of both orientations
T45 chain: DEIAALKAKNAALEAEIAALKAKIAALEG

4H930-AA = target: T46, 4H930-AA; settings: mean of both orientations
T46 chain: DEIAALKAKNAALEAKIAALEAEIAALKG

4H94-AA = target: T47, 4H94-AA; settings: mean of both orientations
T47 chain: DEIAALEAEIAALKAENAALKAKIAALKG

In the case of DENAALEAKNAALKAEIAALEAKIAALKG [4H1478-AA], the interaction score (4H1478-AA) is reported as 0.0991, the interaction score (4H1579-AA) is reported as -0.103 and the interaction score (4H1597-AA) is reported as -0.494. For the same binder, the interaction score (4H1626-AA) was -1.52, the interaction score (4H171-AA) was 0.9 and the interaction score (4H174-AA) was 1.4. For the same binder, the interaction score (4H1842-AA) was -1.06, the interaction score (4H1864-AA) was 1.68 and the interaction score (4H1877-AA) was -0.558. The interaction score (4H2109-AA) was -0.882, the interaction score (4H2162-AA) was -1.13 and the interaction score (4H2253-AA) was -0.889. It also gave an interaction score (4H2274-AA) of -0.761, an interaction score (4H2330-AA) of -1.56 and an interaction score (4H2389-AA) of 0.0289. It also gave an interaction score (4H2438-AA) of -0.717, an interaction score (4H2473-AA) of 2.04 and an interaction score (4H2649-AA) of -1.48. It also gave an interaction score (4H2698-AA) of 1.64, an interaction score (4H2725-AA) of 1.78 and an interaction score (4H2865-AA) of -1.39. It also gave an interaction score (4H3009-AA) of 0.472, an interaction score (4H3016-AA) of -1.29 and an interaction score (4H310-AA) of -0.927. For the same binder, the interaction score (4H3120-AA) was -0.624, the interaction score (4H3130-AA) was -0.211 and the interaction score (4H3165-AA) was -1.68. For the same binder, the interaction score (4H3381-AA) was -1.47, the interaction score (4H3395-AA) was 1.1 and the interaction score (4H3410-AA) was -1. For the same binder, the interaction score (4H3590-AA) was 0.946, the interaction score (4H3697-AA) was -1.54 and the interaction score (4H3753-AA) was 2.25. It also gave an interaction score (4H3865-AA) of -1.31, an interaction score (4H458-AA) of -0.241 and an interaction score (4H485-AA) of -0.796. For the same binder, the interaction score (4H536-AA) was -1.16, the interaction score (4H570-AA) was -1.51 and the interaction score (4H629-AA) was -1.23. For the same binder, the interaction score (4H710-AA) was -0.15, the interaction score (4H745-AA) was 2.14 and the interaction score (4H797-AA) was -1.28. For the same binder, the interaction score (4H850-AA) was 0.0104, the interaction score (4H891-AA) was -1.45 and the interaction score (4H909-AA) was -0.497. For the same binder, the interaction score (4H930-AA) was -0.754 and the interaction score (4H94-AA) was -1.45.
